Laboratory results: patent US20220288204A1, “DOSAGE AND ADMINISTRATION OF ANTI-ERBB3 (HER3) MONOCLONAL ANTIBODIES TO TREAT TUMORS ASSOCIATED WITH NEUREGULIN 1 (NRG1) GENE FUSIONS” (ELEVATION ONCOLOGY, INC., priority 2021, published 2022)

How the values were obtained:
[1] = test system: EGFR, HER2, HER3, HER4, PI3K, mTOR and MAPK pathways in HBECp53-CD74-NRG1 cells; experiment: Western blotting of protein phosphorylation; format: cell-based, human; conditions: serum-starved, 1 hour
Procedure: (§1) Whole-cell extracts were prepared after all treatments and subjected to SDS-PAGE, followed by immunoblotting for the phosphorylated (p) or total (t) proteins shown in each panel. All Western blotting studies were conducted at least two times and representative immunoblots of phosphorylated (p) and total (t) proteins are shown.
(§2) These events likely culminate in inhibition of growth and impaired survival.

[2] = test system: EGFR, HER2, HER3, HER4, PI3K, mTOR and MAPK pathways in LUAD-0061AS3 cells; experiment: Western blotting of protein phosphorylation; format: cell-based, human; conditions: serum-starved, 1 hour
Procedure: as §1, §2

OV-10-0050 PDX tumors = experiment: HGSOC ovarian PDX model efficacy (CLU-NRG1); format: in vivo, mice; parameters: average tumor volume at the time of the last treatment: unit not given beside the values; conditions: for average tumor volume at the time of the last treatment: day 27
Description: IHC characterization of the OV-10-0050 PDX model (FIG. 6A). H&E staining, WT1, and TP53 IHC (left to right). […] (FIG. 6B). Treatment was terminated on day 27 and animals were monitored for tumor regrowth until tumors reached maximum allowable size or until 90 days after treatment initiation. Results represent the mean tumor volume ±SEM. A zoom-in view on tumor volumes during the last 40 days of monitoring of seribantumab-treated groups (right). […] Change in the volume of individual tumors (day 27 vs. volume at start of treatment) (FIG. 6C).
Crushed PDX tumor samples were mixed with Matrigel (50%) and injected into the subcutaneous flank of 6-week-old female NSG (LUAD-0061AS3) or Balb/c nude (OV-10-0050) mice. When tumors reached approximately 100-150 mm3, mice were randomly assigned to groups of 5-8 and treatment was commenced. There were 2 mice per group with bilateral flank tumors for the protein phosphorylation/expression study in the LUAD-0061AS3 PDX model. Drugs were administered once, and then tumors were collected at 2, 24, and 168 hours posttreatment. Afatinib was administered by oral gavage once daily as a suspension (in 0.5% methylcellulose-0.4% Tween-80) on a 5-days-on and 2-days-off schedule. […] Mice were observed daily throughout the treatment period for signs of morbidity and mortality. Tumor length and width and animal weights were measured twice weekly. Tumor volume was calculated using the empirical formula V=length×width 2×0.52. The percentage change in tumor volume of each tumor was calculated using the formula [(V2−V1)/V1)]×100, where V1 is the starting tumor volume and V2 is the final tumor volume.
RT-PCR confirmed the presence of the CLU-NRG1 fusion. Xenograft tissue morphology and IHC markers (positive for WT1 and strong nuclear staining for TP53) were consistent with HGSOC histology (FIG. 6A; Kobel M, et al., Int. J. Gynecol. Pathol. 2016; 35:430-41). […] As with the above experiments in the NSCLC PDX model, the doses of seribantumab used here were lower than the dose that is used in patients. Treatment was terminated at day 27 and tumor growth was monitored for an additional 63 days (90 days after initiation of treatment or once tumors reached the maximum allowable size). The tumor volume as a function of time is illustrated in FIG. 6B, and the AUC was computed for each group to compare tumor volumes between groups at the last date of treatment. […] Forty-one days after treatment began, mice bearing vehicle- and afatinib-treated tumors were sacrificed because of the high tumor burden.

CTG-0943 PDX tumors = experiment: Pancreatic adenocarcinoma PDX model (APP-NRG1); format: in vivo, mice
Procedure: Mice bearing CTG-0943 PDX tumors (5-8 mice per group) were treated with indicated agents (FIG. 8A). Representative H&E-stained slides of a vehicle-treated tumor (FIG. 8B). Tumor volume, results represent the mean±SEM. […] Change in the volume of individual tumors (vehicle: day 20; treated groups: day 31) compared with day 0(%) (FIG. 8D). Western blot analysis of vehicle, and afatinib and seribantumab-treated tumors. Tumor residues extracted day 24 for vehicle-, day 31 for seribantumab-, and day 32 for afatinib-treated groups. Antibody reactivity with human (H) and/or mouse (M) proteins is indicated.
Models of isogenic pancreatic cancer cells with NRG1 fusions by lentiviral-mediated cDNA expression of ATP1B1-NRG1 and SLC3A2-NRG1 fusions in immortalized human pancreatic ductal cells (H6c7) were developed. […] Western blotting analysis was used to evaluate protein phosphorylation and expression. The presence of NRG1 fusions was confirmed by reverse transcription polymerase chain reaction (RT-PCR) and next-generation sequencing (NGS).
There was no regression of afatinib-treated pancreatic PDX tumors. […] This was confirmed using a human-specific GAPH antibody.

[3] = cited from earlier work
[4] = 5 mg or 10 mg twice weekly seribantumab

B1: seribantumab: anti-ERBB3 (HER3) fully human monoclonal antibody; heavy and light chains SEQ ID NOs: 12 and 13 (antibody)
heavy: EVQLLESGGGLVQPGGSLRLSCAASGFTFSHYVMAWVRQAPGKGLEWVSSISSSGGWTLYADSVKGRFTISRDNSKNTLYLQMNSLRAEDTAVYYCTRGLKMATIFDYWGQGTLVTVSSASTKGPSVFPLAPCSRSTSESTAALGCLVKDYFPEPVTVSWNSGALTSGVHTFPAVLQSSGLYSLSSVVTVPSSNFGTQTYTCNVDHKPSNTKVDKTVERKCCVECPPCPAPPVAGPSVFLFPPKPKDTLMISRTPEVTCVVVDVSHEDPEVQFNWYVDGVEVHNAKTKPREEQFNSTFRVVSVLTVVHQDWLNGKEYKCKVSNKGLPAPIEKTISKTKGQPREPQVYTLPPSREEMTKNQVSLTCLVKGFYPSDIAVEWESNGQPENNYKTTPPMLDSDGSFFLYSKLTVDKSRWQQGNVFSCSVMHEALHNHYTQKSLSLSPGK
light: QSALTQPASVSGSPGQSITISCTGTSSDVGSYNVVSWYQQHPGKAPKLIIYEVSQRPSGVSNRFSGSKSGNTASLTISGLQTEDEADYYCCSYAGSSIFVIFGGGTKVTVLGQPKAAPSVTLFPPSSEELQANKATLVCLVSDFYPGAVTVAWKADGSPVKVGVETTKPSKQSNNKYAASSYLSLTPEQWKSHRSYSCRVTHEGSTVEKTVAPAECS
For B1, the HER3 phosphorylation [1] was “completely inhibited”, the “phosphorylation of AKT, p70S6K, and STAT3” value [1] was “almost completely inhibited” and the “phosphorylation of EGFR, HER2, HER3, HER4, AKT, and STAT3” value [2] was “almost complete inhibition”. For the same molecule, the “phosphorylation of ERK1/2” value [2] was “less sensitive”, the “average tumor volume at the time of the last treatment” value (“average tumor volume at the time” below) (OV-10-0050 PDX tumors; 1 mg seribantumab twice weekly) was 1.3±0.3 and the “average tumor volume at the time” value (OV-10-0050 PDX tumors; 2.5 mg seribantumab twice weekly) was 1.9±0.6. For the same molecule, the “average tumor volume at the time” value (OV-10-0050 PDX tumors; 5 mg seribantumab twice weekly) was 17.9±14.5, the “average tumor volume at the time” value (OV-10-0050 PDX tumors; 10 mg seribantumab twice weekly) was 2.1±0.6 and the “day on which tumors started to regrow” value (OV-10-0050 PDX tumors; 1, 2.5 and 5 mg seribantumab groups, treatment terminated day 27) was at most 73 days. The tumor regression (OV-10-0050 PDX tumors; dosage lower than that used in human trials) was 100%, the “tumor regrowth after cessation of treatment” value (OV-10-0050 PDX tumors; highest dose of seribantumab) was “blocked tumor regrowth after cessation of treatment” and the tumor growth (OV-10-0050 PDX tumors; seribantumab 1, 2.5, 5, 10 mg twice weekly) was “significant tumor shrinkage at all doses tested”. The “tumor growth after treatment was stopped” value (OV-10-0050 PDX tumors; seribantumab, monitoring after cessation) was “largely repressed for 63 days”, the “tumors that started to regrow at the end of the study” value (OV-10-0050 PDX tumors; two highest dose groups of seribantumab) was “one of eight” and the tumor growth (CTG-0943 PDX tumors; [4]) was “Tumor growth inhibition was observed”. The tumor shrinkage (CTG-0943 PDX tumors; [4]) was “up to 55%”, the “tumor shrinkage, range” value (CTG-0943 PDX tumors; [4]) was 23-77% and the “proteins in residual tumors by Western blotting” value (CTG-0943 PDX tumors; seribantumab-treated tumors, end of study (day 31)) was “Loss of phosphorylated and total EGFR, HER2 and HER3, cyclin D1”. The “efficacy compared with afatinib” value (CTG-0943 PDX tumors; two doses of seribantumab vs afatinib 5 mg/kg QD) was “more effective than afatinib”, the maximum tolerated dose ([3]; 43 advanced solid tumor patients) was “not reached” and the “treatment-emergent adverse events having >20% incidence” value ([3]; 43 patients, all grades regardless of relationship) was “fatigue, nausea, diarrhea, vomiting, decreased appetite, hyperglycemia, hypokalemia, and rash”. For the same molecule, the hypomagnesemia ([3]; 43 patients) was “Grade 1” and the “most commonly reported adverse events” value ([3]; 43 patients) was “Grade 1 or 2 rash, nausea, diarrhea and fatigue”.
